B1: Solute carrier family 22 member 1 (Rattus norvegicus) (protein)
chain: MPTVDDVLEQVGEFGWFQKQAFLLLCLISASLAPIYVGIVFLGFTPGHYCQNPGVAELSQRCGWSQAEELNYTVPGLGPSDEASFLSQCMRYEVDWNQSTLDCVDPLSSLVANRSQLPLGPCEHGWVYDTPGSSIVTEFNLVCGDAWKVDLFQSCVNLGFFLGSLVVGYIADRFGRKLCLLVTTLVTSVSGVLTAVAPDYTSMLLFRLLQGMVSKGSWVSGYTLITEFVGSGYRRTTAILYQMAFTVGLVGLAGVAYAIPDWRWLQLAVSLPTFLFLLYYWFVPESPRWLLSQKRTTRAVRIMEQIAQKNGKVPPADLKMLCLEEDASEKRSPSFADLFRTPNLRKHTVILMYLWFSCAVLYQGLIMHVGATGANLYLDFFYSSLVEFPAAFIILVTIDRIGRIYPIAASNLVTGAACLLMIFIPHELHWLNVTLACLGRMGATIVLQMVCLVNAELYPTFIRNLGMMVCSALCDLGGIFTPFMVFRLMEVWQALPLILFGVLGLTAGAMTLLLPETKGVALPETIEEAENLGRRKSKAKENTIYLQVQTGKSSST

How the values were obtained:
[1] = target: T1, Solute carrier family 22 member 1 (Mus musculus, UniProt O08966); assay: TP_TRANSPORTER: decrease in small intestine concentration in Oct1 -/- mouse; type: functional, organism-based; conditions: in vivo
T1 sequence (O08966 whole entry): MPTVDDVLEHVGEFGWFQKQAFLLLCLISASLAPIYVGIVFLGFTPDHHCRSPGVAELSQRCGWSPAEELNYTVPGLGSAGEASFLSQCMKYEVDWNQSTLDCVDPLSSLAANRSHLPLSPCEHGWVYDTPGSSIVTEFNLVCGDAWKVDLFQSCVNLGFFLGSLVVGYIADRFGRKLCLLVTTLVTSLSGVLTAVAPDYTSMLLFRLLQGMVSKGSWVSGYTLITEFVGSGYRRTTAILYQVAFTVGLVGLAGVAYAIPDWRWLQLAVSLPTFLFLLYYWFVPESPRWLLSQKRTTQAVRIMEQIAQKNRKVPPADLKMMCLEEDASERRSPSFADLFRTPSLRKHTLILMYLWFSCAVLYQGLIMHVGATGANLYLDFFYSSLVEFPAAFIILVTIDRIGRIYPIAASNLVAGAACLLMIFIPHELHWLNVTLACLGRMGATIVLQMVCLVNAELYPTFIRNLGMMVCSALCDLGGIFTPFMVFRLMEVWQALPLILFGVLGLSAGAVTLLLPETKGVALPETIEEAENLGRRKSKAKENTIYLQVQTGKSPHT

[2] = target: T1, Solute carrier family 22 member 1; assay: TP_TRANSPORTER: decrease in liver concentration in Oct1 -/- mouse; type: functional, organism-based; conditions: in vivo
[3] = substrate: CN(C)C(=N)N=C(N)N; assay: (§1) TP_TRANSPORTER: uptake in OCT1-expressing CHO cells; type: functional, cell-based
[4] = substrate: [H]/N=C(/N)N/C(=N/[H])NCCc1ccccc1; assay: as §1; type: functional, cell-based
[5] = substrate: CCCCNC(=N)NC(=N)N; assay: cells, lysate or membranes named

| Molecule | Activity [1] | Activity [2] | Km [3] [µM] | Km [4] [µM] | Km [5] [µM] |
| --- | --- | --- | --- | --- | --- |
| CN(C)C(=N)N=C(N)N [METFORMIN] | substrate [+] | substrate [+] | – | – | – |
| B1 | – | – | 377 | 15.6 | 48.8 |
